Read-outs that look alike come from different tables or passages of the source.
T1: recombinant mouse m4-1BB protein (mouse, UniProt P20334 24-187)
T1 sequence (looked up): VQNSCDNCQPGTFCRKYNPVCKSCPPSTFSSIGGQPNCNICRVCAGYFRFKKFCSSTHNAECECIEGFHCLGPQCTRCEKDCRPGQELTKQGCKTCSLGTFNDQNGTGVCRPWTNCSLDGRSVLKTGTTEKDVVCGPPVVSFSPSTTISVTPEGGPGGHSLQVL

T2: recombinant mouse mFLT3 protein (mouse, UniProt Q00342 28-544, limits assumed)
T2 sequence (looked up): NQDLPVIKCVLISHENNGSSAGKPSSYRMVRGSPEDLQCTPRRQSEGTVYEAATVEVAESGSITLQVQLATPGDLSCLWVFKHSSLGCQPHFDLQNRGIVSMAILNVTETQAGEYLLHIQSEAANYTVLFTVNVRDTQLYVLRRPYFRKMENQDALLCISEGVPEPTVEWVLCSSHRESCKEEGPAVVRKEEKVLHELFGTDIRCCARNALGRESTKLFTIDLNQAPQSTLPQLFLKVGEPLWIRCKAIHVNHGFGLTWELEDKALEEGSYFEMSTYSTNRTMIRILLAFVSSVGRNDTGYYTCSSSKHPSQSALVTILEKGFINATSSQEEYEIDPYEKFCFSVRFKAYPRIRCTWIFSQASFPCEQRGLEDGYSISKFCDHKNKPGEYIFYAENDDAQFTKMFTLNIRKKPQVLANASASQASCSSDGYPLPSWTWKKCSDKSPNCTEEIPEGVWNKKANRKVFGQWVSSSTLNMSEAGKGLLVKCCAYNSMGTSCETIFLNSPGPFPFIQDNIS


Experiments:
anti-mIgG [1] = target: T3, anti-mIgG; assay: ELISA: plate-bound anti-mIgG (10ug/ml), detection anti-mIgG-HRP (1:1000)
T3 construct: capture antibody of the mFc ELISA; also called Capture Ab: anti-mIgG(10ug/ml)
Excerpt: (§1) Recombinant mFLT3L protein was used to generate a standard curve. […] A mouse whole IgG was used to generate a standard curve. […] Recombinant m4-1BBL protein was used to generate a standard curve.
Recombinant mFLT3L protein was used to generate a standard curve. […] A mouse whole IgG was used to generate a standard curve. […] Recombinant mOX40L protein was used to generate a standard curve.

[2] = target: T1, recombinant mouse m4-1BB protein; assay: Dual ELISA: capture anti-FLT3L (R&D AF427), detection with m41BB-His (Acro), tertiary anti-His/HRP (Abcam)
Description: Capture was performed with an anti-FLT3L antibody, followed by detection of the co-stimulatory domain with a his-tagged recombinant protein, and visualized using an anti-his/HRP antibody.

anti-mIgG [3] = target: T3, anti-mIgG; assay: ELISA: plate-bound anti-mIgG (10ug/ml), detection anti-mIgG-HRP (1:1000); remark: listed apart in the source
Excerpt: as §1

[4] = target: T1, recombinant mouse m4-1BB protein; assay: ELISA: plate-bound m41BB (3.3ug/ml), detection anti-m41BBL (1:1000) and anti-goat IgG (1:10,000)
Excerpt: as §1

[5] = target: T2, recombinant mouse mFLT3 protein; assay: Octet biolayer interferometry, mFLT3-his captured on the sensor
Excerpt: Octet was used to determine on-/off-rates and binding affinities to the target receptors.

| Binder | EC50 (read off the curve) (anti-mIgG [1]) [nM] | EC50 (read off the curve) [2] [nM] | EC50 (read off the curve) (anti-mIgG [3]) [nM] | EC50 (read off the curve) [4] [nM] | binding result [5] |
| --- | --- | --- | --- | --- | --- |
| mFLT3L-Fc-4-1BBL chimeric protein (Fc fusion, murine;mouse (printed as mFc), UniProt P49772 27-189, looked up, extracellular domain;domain: hinge-CH2-CH3 Fc domain; Expressed in 293 cells, purified on protein A; also called murine FLT3L-Fc-4-1BBL) GTPDCYFSHSPISSNFKVKFRELTDHLLKDYPVTVAVNLQDEKHCKALWSLFLAQRWIEQLKTVAGSKMQTLLEDVNTEIHFVTSCTFQPLPECLRFVQTNISHLLKDTCTQLLALKPCIGKACQNFSRCLEVQCQPDSSTLLPPRSPIALEATELPEPRPRQVPRDCGCKPCICTVPEVSSVFIFPPKPKDVLTITLTPKVTCVVVDISKDDPEVQFSWFVDDVEVHTAQTQPREEQFNSTFRSVSELPIMHQDWLNGKEFKCRVNSAAFPAPIEKTISKTKGRPKAPQVYTIPPPKEQMAKDKVSLTCMITDFFPEDITVEWQWNGQPAENYKNTQPIMNTNGSYFVYSKLNVQKSNWEAGNTFTCSVLHEGLHNHHTEKSLSHSPGKRTEPRPALTITTSPNLGTRENNADQVTPVSHIGCPNTTQQGSPVFAKLLAKNQASLCNTTLNWHSQDGAGSSYLSQGLRYEEDKKELVVDSPGLYYVFLELKLSPTFTNTGHKVQGWVSLVLQAKPQVDDFDNLALTVELFPCSMENKLVDRSWSQLLLLKAGHRLSVGLRAYLHGAQDAYRDWELSYPNTTSFGLFLVKPDNPWE | ~7 | ~1 | ~7 | ~9 |  |
| mCD40L-Fc (Acro) (Fc fusion, mouse, UniProt P27548 112-260, looked up, soluble part fused to Fc; also called commercially available mCD40L-Fc (Acro Biosystems)) fusion chain: MQRGDEDPQIAAHVVSEANSNAASVLQWAKKGYYTMKSNLVMLENGKQLTVKREGLYYVYTQVTFCSNREPSSQRPFIVGLWLKPSSGSERILLKAANTHSSSQLCEQQSVHLGGVFELQAGASVFVNVTEASQVIHRVGFSSFGLLKL |  |  |  |  | no binding (tested: concentration not printed) |
